These results are taken from patent US20070243303, “Methods and Means for Regulating Gene Expression” (Friesland Brands B.V., published 2007).

Data set [1] has as its target T1, CodY (native, in cell) (Lactococcus lactis subsp. cremoris …, UniProt A2RHP2 A2RHP2:1-262).
T1 sequence: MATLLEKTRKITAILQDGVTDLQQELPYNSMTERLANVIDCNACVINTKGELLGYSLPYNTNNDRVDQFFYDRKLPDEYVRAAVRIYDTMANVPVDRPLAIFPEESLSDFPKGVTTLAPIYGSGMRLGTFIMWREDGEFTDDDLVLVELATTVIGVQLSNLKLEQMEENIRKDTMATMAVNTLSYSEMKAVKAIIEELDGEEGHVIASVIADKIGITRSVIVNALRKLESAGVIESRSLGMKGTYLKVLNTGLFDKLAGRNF
The experiment in a line: cell_activity. The conditions noted are these: 8-fold for prtM::lacZ; less than 2-fold in codY mutant; scale: fold repression.

Data set [2] concerns the target T2, CodY (H6-CodY) (Lactococcus lactis subsp. cremoris …, UniProt A2RHP2 A2RHP2:1-262).
T2 sequence: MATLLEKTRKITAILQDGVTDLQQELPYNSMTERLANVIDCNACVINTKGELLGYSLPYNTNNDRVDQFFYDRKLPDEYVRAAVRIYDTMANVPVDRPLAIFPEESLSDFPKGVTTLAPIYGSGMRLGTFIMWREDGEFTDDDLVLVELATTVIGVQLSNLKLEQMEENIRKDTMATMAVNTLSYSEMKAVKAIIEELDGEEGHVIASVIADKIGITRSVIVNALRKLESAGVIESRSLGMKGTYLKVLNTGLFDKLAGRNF
In words: EMSA; no binding at any protein amount. The conditions noted are these: tags: N-terminal His6 (pNH6CodY, nisin-induced in L. lactis NZ9000, Ni-NTA); chain copies: multimer, dimer or tetramer by cross-linking (stated); label: 32P 5'-end. The method, then:
BSA (1 μg) and poly(dI-dC) (Amersham Pharmacia Biotech) were added to the reaction mixtures in order to reduce non-specific interactions. After incubation for 15 min at 30° C., samples were loaded onto a 4% polyacrylamide gel. Electrophoresis was performed in the Protean II Minigel System (Bio Rad Laboratories B. V., Veenendaal, The Netherlands) using a gradient (0.5× to 2×) of TAE buffer (Sambrook, Fritsch, and Maniatis, 1989) at 150 V for 1.5 h. Gels were dried and used for autoradiography at −80° C. using Kodak XAR-5 films and intensifying screens.
The upstream oppD region contains a small sequence that is inversely repeated with a spacing of 9 base pairs in between (FIG. 1). This region of dyad symmetry is located just upstream of the −35 promoter sequence. To determine whether this region is important for the interaction with CodY, a stepwise deletion analysis of the oppD upstream region was performed. Radioactively labeled deletion fragments of the region, obtained by PCR, were incubated with H6-CodY. […]
Different parts of the oppD promoter region were amplified by PCR (panel A), radioactively labelled and incubated with no (lanes 1), 20 ng (lanes 2) or 200 ng (lanes 3) of His6-CodY protein, respectively (panel B). […] Cells were harvested in the exponential phase of growth and β-galactosidase activity was measured (solid bars). […]
(In general: In EMSA bound probe runs differently from free probe, usually more slowly.)

For data set [3], the target named is T1, CodY (native, in cell). The experiment in a line: cell_activity; lacZ reporter in L. lactis LL108. The source says:
(§1) The fact that H6-CodY was unable to form a protein-DNA complex when a probe was used that lacks the upstream arm of this IR (probe 1 in FIG. 3) implies that this area might serve as an operator site for CodY on PoppD. To study this region in more detail, site directed mutations were introduced by PCR using combinations of oligonucleotide opp1 with oligonucleotides opp14 (WT), opp15(a), opp(15b) or opp2, respectively (FIG. 4A). The PCR products were ligated upstream of the promoterless lacZ reporter gene in pORI13 and introduced into L. lactis LL108. […] When the unchanged half-site was replaced by an unrelated sequence (an XbaI endonuclease site, present in opp2), repression was reduced approximately 30-fold (in cells growing exponentially in rich medium) and H6-CodY binding was completely abolished (as shown in FIG. 3).
(§2) FIG. 4D: Promoter activity of PoppD variants. L. lactis LL108 strains carrying the lacZ reporter plasmids were grown in GM17 medium. Cells were harvested in the exponential phase of growth and β-galactosidase activity was measured (solid bars). […] Open bars indicate a quantitative representation of the DNA binding assay shown in panel C. The relative binding affinity of H6-CodY for the PoppD variants was calculated by comparing the intensity of the shifted, H6-CodY bound complexes with the total radioactive signal in each lane in the presence of 100 ng protein.

Data set [4] has as its target T2, CodY (H6-CodY). In words: EMSA; 20 or 200 ng H6-CodY. The conditions noted are these: tags: N-terminal His6 (pNH6CodY, nisin-induced in L. lactis NZ9000, Ni-NTA); chain copies: multimer, dimer or tetramer by cross-linking (stated); label: 32P 5'-end. The method, then:
(§3) Gel retardation experiments were carried out essentially as described by Ebbole and Zalkin (Ebbole et al., 1989). Purified PCR products (2 μg) were end-labelled with polynucleotide kinase (Amersham Pharmacia Biotech) for 1 h at 37° C. using 30 μCi [γ-³²P]-ATP (Amersham Pharmacia Biotech) in a volume of 20 μl. Reactions were stopped by incubating the mixtures for 10 min at 70° C. Binding studies were carried out in 20 μl reaction volumes containing 20 mM Tris-HCl (pH 8.0), 8.7% (v/v) glycerol, 1 mM EDTA (pH 8.0), 5 mM MgCl₂, 100 mM KCL, 0.5 mM DTT, labelled DNA fragment (3000 cpm), and purified His6-CodY protein (50-400 ng). BSA (1 μg) and poly(dI-dC) (Amersham Pharmacia Biotech) were added to the reaction mixtures in order to reduce non-specific interactions. After incubation for 15 min at 30° C., samples were loaded onto a 4% polyacrylamide gel. Electrophoresis was performed in the Protean II Minigel System (Bio Rad Laboratories B. V., Veenendaal, The Netherlands) using a gradient (0.5× to 2×) of TAE buffer (Sambrook, Fritsch, and Maniatis, 1989) at 150 V for 1.5 h. Gels were dried and used for autoradiography at −80° C. using Kodak XAR-5 films and intensifying screens.
The upstream oppD region contains a small sequence that is inversely repeated with a spacing of 9 base pairs in between (FIG. 1). This region of dyad symmetry is located just upstream of the −35 promoter sequence. […]

The target in data set [5] is T2, CodY (H6-CodY). In words: EMSA; multiple retarded bands, four with 10-100 ng; 5 mM MgCl2, 100 mM KCl, pH 8.0, 30 C; Ile (0.6 or 2.5 mM) stimulates, Val/Leu 0.6 mM reduce shift and 2.5 mM give. The conditions noted are these: tags: N-terminal His6 (pNH6CodY, nisin-induced in L. lactis NZ9000, Ni-NTA); chain copies: multimer, dimer or tetramer by cross-linking (stated); label: 32P 5'-end. As for the experimental part: as §3, with “Binding studies were carried out in 20 μl reaction volumes containing 20 mM Tris-HCl (pH 8.0), 8.7% (v/v) glycerol, 1 mM EDTA (pH 8.0), 5 mM MgCl₂, 100 mM KCL, 0.5 mM DTT, labelled DNA fragment (3000 cpm), and purified His6-CodY protein (50-400 ng).” left out
In order to examine whether L. lactis CodY directly interacts with upstream DNA sequences of its main target known so far, oppD, in vitro DNA binding studies were performed. For this purpose, histidine-tagged CodY was overexpressed using the nisin inducible gene expression system (Kuipers et al., 1998) and subsequently purified to apparent homogeneity. A radioactively labeled PCR fragment spanning the oppD upstream region (FIG. 1) was used as a probe. […]

Data set [6] deals with T2, CodY (H6-CodY). In words: EMSA; affinity order WT > opp15(a) > opp15(b). The conditions noted are these: tags: N-terminal His6 (pNH6CodY, nisin-induced in L. lactis NZ9000, Ni-NTA); chain copies: multimer, dimer or tetramer by cross-linking (stated); label: 32P 5'-end.
From the text: as §1, §2

The molecule “prtP/prtM intergenic region BGMN1-5 (330 bp)” returned an activity with CodY (native, in cell) [1] of 6.

B1: oppD probe 1 / opp2 (160 bp, upstream arm removed) (dsDNA)
DNA 1: AACTGCAGGAAAATTCATGAACATACC
DNA 2: GGTATGTTCATGAATTTTCCTGCAGTT
Turning to B1, the binding result with CodY (H6-CodY) [2] is given as “no binding”.

B2: opp15(b) mutant oppD fragment (154 bp) (dsDNA)
DNA 1: AACTGCAGCGTACTGTGCCGAAAATTCATGAACATACC
DNA 2: GGTATGTTCATGAATTTTCGGCACAGTACGCTGCAGTT
Consider B2, for which, in the data set with CodY (native, in cell) [3], the activity was above 20 fold derepression vs WT.

B3: oppD probe 2 (-111 to +75) (dsDNA)
DNA 1: ATGTTCAGAAAATTCATGAACAT
DNA 2: ATGTTCATGAATTTTCTGAACAT
B3: the binding result with CodY (H6-CodY) [4] is reported as “binds”.

B4: opp15(a) mutant oppD fragment (154 bp) (dsDNA)
DNA 1: AACTGCAGCGTAATATTTAGAAAATTCATGAACATACC
DNA 2: GGTATGTTCATGAATTTTCTAAATATTACGCTGCAGTT
On to B4, for which, in the data set with CodY (native, in cell) [3], the activity is around 7 fold derepression vs WT.

B5: oppD promoter fragment opp162 (probe 3, opp1-opp3 PCR) (dsDNA)
DNA 1: ATGTTCAGAAAATTCATGAACAT
DNA 2: ATGTTCATGAATTTTCTGAACAT
As to B5, in the data set with CodY (H6-CodY) [5], the binding result is given as “binds”.

B6: opp14 WT oppD fragment (154 bp) (dsDNA)
DNA 1: ATGTTCAGAAAATTCATGAACAT
DNA 2: ATGTTCATGAATTTTCTGAACAT
B6: in the data set with CodY (H6-CodY) [6], the binding result is “binds”.
